B1: bacteriophage T7 gp15 core protein (natural protein, UniProt P03725 1-747, looked up)
chain: MSKIESALQAAQPGLSRLRGGAGGMGYRAATTQAEQPRSSLLDTIGRFAKAGADMYTAKEQRARDLADERSNEIIRKLTPEQRREALNNGTLLYQDDPYAMEALRVKTGRNAAYLVDDDVMQKIKEGVFRTREEMEEYRHSRLQEGAKVYAEQFGIDPEDVDYQRGFNGDITERNISLYGAHDNFLSQQAQKGAIMNSRVELNGVLQDPDMLRRPDSADFFEKYIDNGLVTGAIPSDAQATQLISQAFSDASSRAGGADFLMRVGDKKVTLNGATTTYRELIGEEQWNALMVTAQRSQFETDAKLNEQYRLKINSALNQEDPRTAWEMLQGIKAELDKVQPDEQMTPQREWLISAQEQVQNQMNAWTKAQAKALDDSMKSMNKLDVIDKQFQKRINGEWVSTDFKDMPVNENTGEFKHSDMVNYANKKLAEIDSMDIPDGAKDAMKLKYLQADSKDGAFRTAIGTMVTDAGQEWSAAVINGKLPERTPAMDALRRIRNADPQLIAALYPDQAELFLTMDMMDKQGIDPQVILDADRLTVKRSKEQRFEDDKAFESALNASKAPEIARMPASLRESARKIYDSVKYRSGNESMAMEQMTKFLKESTYTFTGDDVDGDTVGVIPKNMMQVNSDPKSWEQGRDILEEARKGIIASNPWITNKQLTMYSQGDSIYLMDTTGQVRVRYDKELLSKVWSENQKKLEEKAREKALADVNKRAPIVAATKAREAAAKRVREKRKQTPKFIYGRKE
B2: bacteriophage T7 gp16 core protein (natural protein, UniProt P03726 1-1318, looked up)
chain: MDKYDKNVPSDYDGLFQKAADANGVSYDLLRKVAWTESRFVPTAKSKTGPLGMMQFTKATAKALGLRVTDGPDDDRLNPELAINAAAKQLAGLVGKFDGDELKAALAYNQGEGRLGNPQLEAYSKGDFASISEEGRNYMRNLLDVAKSPMAGQLETFGGITPKGKGIPAEVGLAGIGHKQKVTQELPESTSFDVKGIEQEATAKPFAKDFWETHGETLDEYNSRSTFFGFKNAAEAELSNSVAGMAFRAGRLDNGFDVFKDTITPTRWNSHIWTPEELEKIRTEVKNPAYINVVTGGSPENLDDLIKLANENFENDSRAAEAGLGAKLSAGIIGAGVDPLSYVPMVGVTGKGFKLINKALVVGAESAALNVASEGLRTSVAGGDADYAGAALGGFVFGAGMSAISDAVAAGLKRSKPEAEFDNEFIGPMMRLEARETARNANSADLSRMNTENMKFEGEHNGVPYEDLPTERGAVVLHDGSVLSASNPINPKTLKEFSEVDPEKAARGIKLAGFTEIGLKTLGSDDADIRRVAIDLVRSPTGMQSGASGKFGATASDIHERLHGTDQRTYNDLYKAMSDAMKDPEFSTGGAKMSREETRYTIYRRAALAIERPELQKALTPSERIVMDIIKRHFDTKRELMENPAIFGNTKAVSIFPESRHKGTYVPHVYDRHAKALMIQRYGAEGLQEGIARSWMNSYVSRPEVKARVDEMLKELHGVKEVTPEMVEKYAMDKAYGISHSDQFTNSSIIEENIEGLVGIENNSFLEARNLFDSDLSITMPDGQQFSVNDLRDFDMFRIMPAYDRRVNGDIAIMGSTGKTTKELKDEILALKAKAEGDGKKTGEVHALMDTVKILTGRARRNQDTVWETSLRAINDLGFFAKNAYMGAQNITEIAGMIVTGNVRALGHGIPILRDTLYKSKPVSAKELKELHASLFGKEVDQLIRPKRADIVQRLREATDTGPAVANIVGTLKYSTQELAARSPWTKLLNGTTNYLLDAARQGMLGDVISATLTGKTTRWEKEGFLRGASVTPEQMAGIKSLIKEHMVRGEDGKFTVKDKQAFSMDPRAMDLWRLADKVADEAMLRPHKVSLQDSHAFGALGKMVMQFKSFTIKSLNSKFLRTFYDGYKNNRAIDAALSIITSMGLAGGFYAMAAHVKAYALPKEKRKEYLERALDPTMIAHAALSRSSQLGAPLAMVDLVGGVLGFESSKMARSTILPKDTVKERDPNKPYTSREVMGAMGSNLLEQMPSAGFVANVGATLMNAAGVVNSPNKATEQDFMTGLMNSTKELVPNDPLTQQLVLKIYEANGVNLRERRK

What was measured:
[1] = molecular target: the molecule itself; experiment: AUC + other: dynamic light scattering
[2] = molecular target: B1; experiment: AUC

Binder | stoichiometry N [1] | stoichiometry N [2]
B1 | 6 | 
B2 |  | 6 gp16 monomers per gp15 hexamer
